Test results from PMC3719173 (Nature structural & molecular biology, 2010).

B1: human Rev-erbα LBD (281–614 Δ324–422) (domain or fragment, UniProt P20393 281-614, looked up)
chain: PEPTVEDVISQVARAHREIFTYAHDKLGSSPGNFNANHASGSPYPHGRSGRTVQEIWEDFSMSFTPAVREVVEFAKHIPGFRDLSQHDQVTLLKAGTFEVLMVRFASLFNVKDQTVMFLSRTTYSLQELGAMGMGDLLSAMFDFSEKLNSLALTEEELGLFTAVVLVSADRSGMENSASVEQLQETLLRALRALVLKNRPLETSRFTKLLLKLPDLRTLNNMHSEKLLSFRVDAQ

Columns and labels:
Rev-erbα LBD = conditions: NCoR ID1 peptide; cited from earlier work
GST-Rev-erbα LBD (human) = biological target: T1, GST-Rev-erbα LBD (human); test: FRET or BRET
T1 sequence (P20393 whole entry, looked up): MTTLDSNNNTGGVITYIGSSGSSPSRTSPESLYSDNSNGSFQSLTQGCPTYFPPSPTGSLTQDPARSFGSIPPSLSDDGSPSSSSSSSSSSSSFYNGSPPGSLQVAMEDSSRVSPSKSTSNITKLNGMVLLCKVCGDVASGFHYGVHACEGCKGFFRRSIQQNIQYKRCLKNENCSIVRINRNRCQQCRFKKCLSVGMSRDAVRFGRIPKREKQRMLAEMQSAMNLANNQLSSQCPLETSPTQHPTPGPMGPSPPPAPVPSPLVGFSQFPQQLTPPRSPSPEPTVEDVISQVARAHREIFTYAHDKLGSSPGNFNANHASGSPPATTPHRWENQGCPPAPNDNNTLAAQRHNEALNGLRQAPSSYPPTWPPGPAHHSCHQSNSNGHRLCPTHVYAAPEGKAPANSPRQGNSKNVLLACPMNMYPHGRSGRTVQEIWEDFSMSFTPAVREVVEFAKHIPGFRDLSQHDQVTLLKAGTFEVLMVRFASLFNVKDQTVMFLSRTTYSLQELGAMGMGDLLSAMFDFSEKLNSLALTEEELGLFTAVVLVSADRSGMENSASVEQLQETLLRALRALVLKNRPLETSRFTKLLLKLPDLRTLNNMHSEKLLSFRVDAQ

[1] = biological target: B1; test: crystal structure
crystal structure = biological target: the molecule itself; test: crystal structure

For `C=CC1=C(C)c2cc3[n-]c(cc4[n-]c(cc5nc(cc1n2)C(C)=C5C=C)c(C)c4CCC(=O)O)c(CCC(=O)O)c3C.[Fe+2]` [heme], the “Effect of heme binding on interaction of Rev-erbα LBD with ID1 peptide” value (Rev-erbα LBD) is listed as “destabilizes the interaction of Rev-erbα with the ID1 peptide”.

Molecule “NCoR (2040–2065) −1H2054A peptide (from UniProt O75376 2040-2065)” has an IC50 (GST-Rev-erbα LBD (human)) of 0.25 µM.

With “NCoR (2040–2065) +5Ile2059 alanine mutant peptide (from UniProt O75376 2040-2065)” the IC50 (GST-Rev-erbα LBD (human)) was 19.4 µM.

“NCoR (2040–2065) +4Ile2058 alanine mutant peptide (from UniProt O75376 2040-2065)” gave an IC50 (GST-Rev-erbα LBD (human)) of 8.1 µM.

“NCoR (2040–2065) −7Leu2048A peptide (from UniProt O75376 2040-2065)” gave an IC50 (GST-Rev-erbα LBD (human)) of 0.57 µM.

With “NCoR (2040–2065) −4Leu2051A peptide (from UniProt O75376 2040-2065)” the IC50 (GST-Rev-erbα LBD (human)) was 0.6 µM.

In the case of “control wild type NCoR ID1 (2040–2065) peptide (from UniProt O75376 2040-2065)”, the IC50 (GST-Rev-erbα LBD (human)) is reported as 0.22 µM.

“NCoR (2040–2065) −9His2046A peptide (from UniProt O75376 2040-2065)” gave an IC50 (GST-Rev-erbα LBD (human)) of 0.54 µM.

With “NCoR (2040–2065) +1Ile2055 alanine mutant peptide (from UniProt O75376 2040-2065)” the IC50 (GST-Rev-erbα LBD (human)) was 50.3 µM.

With “NCoR (2040–2065) +9F2063A peptide (from UniProt O75376 2040-2065)” the IC50 (GST-Rev-erbα LBD (human)) was 1.9 µM.

THRLITLADHICQIITQDFAR [NCoR CoRNR1 peptide (2045–2065)]: binds [1].

B1: binds (crystal structure).
